The data set in a line: yeast display, Sf9 membrane polyspecificity reagent, FACS + sequencing; frameworks hold sequencing errors. Put shortly:
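After 36–48 hours of galactose induction, yeast (Saccharomyces cerevisiae BJ5465) displaying a synthetic nanobody library were stained at 4 °C for 1 hour with 10% biotinylated, detergent-solubilized Sf9 membrane reagent. Streptavidin microbeads enriched the stained cells before FACS sorting into low and high (top ~1%) gates on anti-HA and streptavidin fluorescence. Each clone's polyreactivity label reflects its gate of origin.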
On to “QVQLVESGGGLVQAGGSLRLSCAASGFTFAYYAMGWYRQAPGKERELVAAISSRGGSTYYADSVKGRFTISRDNAKNTVYLQMNSLKPEDTAVYYCAAEFGLWPYEYGYWGQGTQVTVSS”, for which the “polyreactivity (PSR sort gate)” value is reported as “high polyreactivity”.

With “QVQLVESGGGLVQAAGSLRLSCAASGRTFGQYVMGGSRQAPGKERELVAAISGIGGSTYYADSVKGRFTISRDNAKNTVYLQMNSLIPDDTAVYYCAVELYWYPGYDYWGQGTQVTVSS”, the “polyreactivity (PSR sort gate)” value is reported as “low polyreactivity”.

On to “QVQLVESGGGLVQAGGSLRLSCAASGLTVKYYAMGWFRQAPGKERELAAIISFGGGSTYYADSVKGRFTISRDNAKNTVYLQMNSLKPEDTAVYYCNARLLFKYGYWGQGTQVTVSS”, for which the “polyreactivity (PSR sort gate)” value is “high polyreactivity”.

Consider “QVQLVESGGGLVQAGGSLRLSCAASGIILTQNAMGWYRQAPGKERELVAAITESGARTYYADSVKGRFTISRDNAKNTVYLQMNSLKPEDTAVYYCNAYRYYRGQVYPFYYWGQGTQVTVSS”, for which the “polyreactivity (PSR sort gate)” value was “low polyreactivity”.

Consider “QVQLVESGGGLDQAGGSLSLSCAASGLIINSNTMGWYRQAPGKERELVAVINWRGGRTYYADSVKGRFTISRDNAKNTVDLQMNSLKPEDTAVYYCAAYLHGARYGYWGQGTQVTVSS”, for which the “polyreactivity (PSR sort gate)” value is “high polyreactivity”.

“QVQLVESGGGLVQAGGSLRLSCSATGSTFTINSMGWYRQAPGKERELVAATSKRGTNTYYADSVKGRFTISRDNAKNTVYLQMNSMKTEDSAVYYCKAPGHRQNGLGDYWGQGTQVTVSS”: the “polyreactivity (PSR sort gate)” value is given as “high polyreactivity”.

Consider “QDQLVESGGGLVQAGGSLRLSCAASGRTFVTYAMGWYRQAPGKEREFVAAITWSTGTSTYYADSVKGRFTISRDNAKNTVYLQMNSLKPEDTAGYYCAAYYVVHFGYWGQGTQVTVSS”, for which the “polyreactivity (PSR sort gate)” value was “low polyreactivity”.

“QVQIVESGGGLVQAGGSLRLICAASGYTFTIYAMGWYRQAPGKERELVAAITTIGGRTYYADSVKGRFTISRDNAKNTVYLQMNSLKPEATAVYYCAARARVEGGYRGKFGYWGQGTQLTVSS”: the “polyreactivity (PSR sort gate)” value is “high polyreactivity”.

As to “QVQLVESGGGLVQAGGSLRLSCAASGRTFLRYAMGWYRQAPGKERELVAAISWSGGRTYYADSVKGRFTISRDNAKNTVYLQMNSLKPEDTAVYYCNKVVLYGAHYYYWGQGTQVTVSS”, the “polyreactivity (PSR sort gate)” value is “high polyreactivity”.

As for “QVQLEESGRGLVQAGGSLRLSCAASGSTFWSYAMGWYRQAPGKERELVATITRAGTTNYADSVKGRFTISRDNAKNTVYLQMNSLKPVDTAVFYCATRRPIYVRAYDYWGQGTQVTVSS”, the “polyreactivity (PSR sort gate)” value was “high polyreactivity”.

Regarding “QVQLVESGGGLVQAGGSLRLSCAASGRIFGFYAMGWYRQAPGKERELVADINWSATSTYYADSVKGRFTISRDNAKNTVYLQMNSLKPEDTAVYYCAADVSYRYYWGQVTQVTVSS”, the “polyreactivity (PSR sort gate)” value is on record as “low polyreactivity”.

For “QVQLVESGGGLVQAGGSLRLSCAASGRIFTTYVMGCYRQAPGKERELVAAISWSGGNTYYADSVKGRFTISRDNAKNTVYLQMNSLKPEDTAVYYCNAVGTIREGDYWGQGTQVTVSS”, the “polyreactivity (PSR sort gate)” value is recorded as “low polyreactivity”.

Consider “QVQLVESGGGLVQAGGSLRLSCAASGRTIYQNAMGWYRQAPGKEREFVAAITGGTGSTHYADSVKGRFTISRDNAKITVYLQMNSLKPEDSAVYYCATRYLFGFSRYDYWGQGTQVTVSS”, for which the “polyreactivity (PSR sort gate)” value is reported as “low polyreactivity”.

On to “QVQLVESGGGLVQAGGSLRLSCAASGFIFRYYTMGWYRQAPGKERELVATITSGGSTYYADSVKGRFTISRDNAKNTVYVQMNSLKPEDTAVYYCAKVRDVLWRFNYWGQGTQVTVSS”, for which the “polyreactivity (PSR sort gate)” value is “high polyreactivity”.

In the case of “QDQLVESGGGLVQAGGSLRLSCAASGSIFAGYAMGWYRQAPGKESELVAAITSGGRTYYADSVKGRFTISRDNAKNTVYLQMNSLKPEDTAVYYCAKRWYTKTGYDYWGQGTQVTVSS”, the “polyreactivity (PSR sort gate)” value is “high polyreactivity”.

“QVQLVESGGGLFQAGGSLRLSCAASGITFSKNSMGWYRQAPGQERELVAAITRRSVSKYYADSVKGRFTISRDNENNNLYLQMNSLKPEYTAVYYCAASYSSKHGYWGQGTQVTVSS”: the “polyreactivity (PSR sort gate)” value is listed as “high polyreactivity”.

In the case of “QVQLVESGGGIVQAGGSLGLSCGASGRTCRKFSMGWYSQAPGNAWEVVAAISSRGGSTYYADSVKGRFTSSRDNAKNTVYLQMNSLIPEDTAVYYCATDSIPPSSEGDYWGQGTQGTVSS”, the “polyreactivity (PSR sort gate)” value is on record as “high polyreactivity”.

Regarding “QVQLVESGGVLVQAGGSLRLSCAASGRTFRRNAMGWYRQAPGKERELVAGIRSSGGSTYYADSVKGRFTISRDNAKNTVYLQINSLKQEDTAVYYCNAVGRPRYGHGFDHWGQGTQVTVSS”, the “polyreactivity (PSR sort gate)” value is reported as “high polyreactivity”.

Regarding “QVQLVESGGGLVQAGGSLRLSCAASGLIFPTNAMGWYRPAPGKERELVAAISSVGSTYYADSVKGRFTISRDNAKNTVYLQMNSLKPEDTAVYYCAAYWYGSQYKWRYDYWGQGTQVTVSS”, the “polyreactivity (PSR sort gate)” value is listed as “low polyreactivity”.

Take “QVQLVESGGGLVQAGGSLRLSCAASGFIVDWYTRGWYRQAPGKERELVARISSDGSTTYADSVKGRFTISRDNAKNTVSVQMTSLKPEDTAVYYCAADVTYPGLKYIFDDWGQGTQVTVTS”: the “polyreactivity (PSR sort gate)” value was “low polyreactivity”.

Take “QVQLEESGGGLVQAGGSLRLSCAASGLIFQVYALGWYRQAPGKERELVASISWNGGSTYYADSVKGRFTISRDNAKNTVYLQMNSLKPEDTAVYYCNKYPVSLWYYSKDYTYDYWGQGTQVTVSS”: the “polyreactivity (PSR sort gate)” value is reported as “low polyreactivity”.

“QVQLVETGGGLVQARGSLRLSCAASVSILYGNAMGWYRQAPGKERELVAAISRGGSTYYADSVKGRFTISRDNAKNTVYLQMNSLKPEDTAVYYCNALYTSYYRPSGMGYWGQGTQVTVSS”: the “polyreactivity (PSR sort gate)” value was “high polyreactivity”.

“QVQLVESGGGLVQAGGSLRLSCAASGFTFYGYAMGWYRQAPGKERELVAGISKNGGSTYYADSVKGRFTISRDNAKNTVYLQMNSLKPEDTAVYYCNKRSTLNTRRDYWGQGTQVTVSS”: the “polyreactivity (PSR sort gate)” value is given as “high polyreactivity”.

With “QVQLVESGGGLVQAGGSLRLSCAASGSIFDYYAMGWYRQAPGKERELVASINSSGTGTYYADSVKGRFTISRDNAKNTVYLQMNSLKPEDTAVYYCATRQAVGYSSGRGYGYWGQGTQVTVSS”, the “polyreactivity (PSR sort gate)” value is on record as “low polyreactivity”.

With “QDQIVESGGGLVQAGGSLRLSCAASGRTFGVNTMGWSRQAPGKVREMVASISTSGGSTYADSVKGRFTISRDNPKNTVYLQMNSLKPEDSAVYYCAKDTDAVYDEFDSWGQGTQVTVSS”, the “polyreactivity (PSR sort gate)” value was “low polyreactivity”.

As for “QVQLVESGGGLVQAGGSLRLSCAASGSTFYLYTMGWYRQAPGKERELVAAINRSGGRTYYADSVKGRFTISRDNAKNTVYLQMNSLKPEDTAVYYCATDSVTRGRSRGFDYWGQGTQVTVSS”, the “polyreactivity (PSR sort gate)” value was “high polyreactivity”.

As for “QVQLVDSGGGLVQAGGSLRLSCAASGYTFVGYAMGWSRQAPGKERELVAVISGSGGSTRYADSVKGRFTISRDNAKNTVYLQMNSLKPEDTAVYYCAARQPRTQAVYEGYYWGQGTQVTVSS”, the “polyreactivity (PSR sort gate)” value is on record as “high polyreactivity”.

In the case of “QVQLVESGGGLVQAGGSLRLSCAASGSIFYRNAMGWYRQAPGKERELGAAISWSAARTYYADSVKGRFTISRDNAKNTVYLQMNSLKPEDTAVYYCAAYQTSRYKYEYWGQGTQVTVSS”, the “polyreactivity (PSR sort gate)” value is given as “high polyreactivity”.

For “QVQLVESGGGLVQAGGSLRLSCAASGRIFASYVMGWYSQAPGKERELVAAISRSGVSTYYADSVKGRFTISRDNEKNTVYLQINSLIPEDTAVYYCATTRFPRSFQEFGYWGQGTQVNVSS”, the “polyreactivity (PSR sort gate)” value is given as “high polyreactivity”.

As for “QDQLEESGGGLVQAGGSLRLSCGASGSIYDTNDMGWYRQAPGKERELVSAISSGGNTNYADSVKGRFTISRDNAKNTVYLQMKSVKPEDTAVYYWAAVWLGVYSVWTYHHYDYWGQGTQVTVSS”, the “polyreactivity (PSR sort gate)” value is “low polyreactivity”.

As for “QVQLVESGGGLVQAGGSLRLSCAASGRTFGLYAMRWYIQAPGKERELVAAIRGSAGSTYYADSVKGRFTISRDNAKNTVYLQMNSLKPEDTAVYYCATGGYPSLWYGYGYWGQGTQVTVSS”, the “polyreactivity (PSR sort gate)” value is on record as “low polyreactivity”.

Consider “QVQLVESGGGLVQAGGSLRLSCAASGLTLHGNAMGWYRQAPGKERELVATITSSGGSTFYADSVKGRFTISRDNAKNTVYLQMNSLKPEDTAVYYCNADAPYSDDYYVRFDYWGQGTQVTVSS”, for which the “polyreactivity (PSR sort gate)” value was “low polyreactivity”.

Take “QVQLVESGGGLVQAGGSLRLSCDASGGTFVHNAMGWYRQAPGKERELVAAISWSGGSTYYADSVKGRFTISRDNATNTVYLQMNSLKPEDTAVNYCAADLPDYKDIFDSWGQGTQVTLSS”: the “polyreactivity (PSR sort gate)” value is “low polyreactivity”.

In the case of “QVQHVESGGGLVQAGGSLRISSAASGYIFDKYAMGRYRQAPGKERELVAAITYSGGSTYYADSVKGRFTISRDNAKNTVYLQMNSLIAEDTAVNYCAPEVRRSTLEFGYWRQGTQVTVSS”, the “polyreactivity (PSR sort gate)” value is on record as “high polyreactivity”.

For the sequence “QVQLVESGGGLVQAGGSLRLICAASGRTFGVNAMGWYRQAPGKERELVASIRWNGGSTYYADSVKGRFTISRDNAKNTVYLQMNSLKPEDTAVYYCNAVRRYRSREFDYWGQGTQVTVSS”, the “polyreactivity (PSR sort gate)” value was “low polyreactivity”.

As for “QVQLVESGGGLVQAGGSLPLSCAASGRTFHYNAMGWYRQAPGKERDLFAAISRDGGSTDYADSVKGRFTISSDNAKNTVYLQMNSLKPEDTAVYYCAAPIGKQEFSRDYDYWGQGTQVTVSS”, the “polyreactivity (PSR sort gate)” value is given as “low polyreactivity”.

On to “QVQLVETGGGLVQAGGSLRLSCAASGFIFYPYDMGWYRQAPGKERELVAAITQSGGSTYYADSVKGRFTISRDNAKNTVYLQMNSLKQVDTAVYYCAADYAVWHRGQVVEIYDYWGQGTQVTVSS”, for which the “polyreactivity (PSR sort gate)” value is reported as “low polyreactivity”.

For “QVQLVESGGGLVQAGGSLRLSCAASGRIFWYYTMGWYRQAPGKERELVAAISRGGSTYYADSVKGRFTISRDNAKNTVYLQMNSLKPEDTAVYYCAAQESWKIYDYWGQGTQVTVSS”, the “polyreactivity (PSR sort gate)” value is given as “low polyreactivity”.

Turning to “QVQLVESGGGLVQAGGSLRLSCAASGIIFKLYAMGWYRQAPGKEREFVATITKTGGRTYYEDSVKGRFTISRDNAKNTVYLQMNSLKPEDTAVYYCAARRVNGKMYYWGQGTQVTVSS”, the “polyreactivity (PSR sort gate)” value is reported as “high polyreactivity”.

As for “QVQLVESGGGLVQAGGSLRLSCAASGFTCSQNAMGWYRQAPGKERELVAAITGHGGSTYYADSVKGRFTISRDNAKNTVYLQMNSLKPEDTAVYYCAADVYAVHAPQSDYWTKYDYWGQGTQVTVSS”, the “polyreactivity (PSR sort gate)” value is on record as “low polyreactivity”.

On to “QVQLVESGGGLVQAGGSLRISCAASGNIFGVYAMGWYRQAPGKERELVATITTGGSTYYADSVKGRFTISRDNAKNTVYLQMNSLKPEDTAVYYCAADVGGGNYVYYGNDYDDGYWGQGTQVTVSS”, for which the “polyreactivity (PSR sort gate)” value is recorded as “low polyreactivity”.
